Patent publication US20260001961A1 (ALLIGATOR BIOSCIENCE, published 2026)

Assays:
[1] = molecular target: T1, CD40 (UniProt P25942 21-193); assay: Octet BLI; biotinylated CD40 on streptavidin sensor;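 note: octet RED96 biolayer interferometry, 300 s association then 300 s dissociation in kinetic buffer, buffer-blank referenced, fitted with a 1:1 Langmuir binding model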
T1 construct: also called biotinylated CD40; CD40 antigen
Description: (§1) Kinetic measurements were performed using the Octet RED96 platform (ForteBIo). […] Association was followed for 300 seconds followed by dissociation in 1x Kinetic buffer for 300 seconds. Sensor tips were regenerated using 10 mM glycine, pH 1.7. Data generated were referenced by subtracting a parallel buffer blank, the baseline was aligned with the γ-axis, inter-step correlation by alignment against dissociation was performed and the data were smoothed by a Savitzky-Golay filter in the data analysis software (v.9.0.0.14). The processed data were fitted using a 1:1 Langmuir binding model with X2 as a measurement of fitting accuracy.
(§2) Binding affinities of all the variants were determined using Octet (Pall ForteBio).

[2] = molecular target: T2, EpCAM (UniProt P16422 24-265); assay: Octet BLI; biotinylated EpCAM on streptavidin sensor;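 note: octet RED96 kinetics: 300 s association, then 300 s dissociation in 1x Kinetic buffer, buffer-blank referenced, Savitzky-Golay smoothed, fitted to a 1:1 Langmuir binding model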
T2 construct: also called biotinylated EpCAM
T2 sequence (looked up): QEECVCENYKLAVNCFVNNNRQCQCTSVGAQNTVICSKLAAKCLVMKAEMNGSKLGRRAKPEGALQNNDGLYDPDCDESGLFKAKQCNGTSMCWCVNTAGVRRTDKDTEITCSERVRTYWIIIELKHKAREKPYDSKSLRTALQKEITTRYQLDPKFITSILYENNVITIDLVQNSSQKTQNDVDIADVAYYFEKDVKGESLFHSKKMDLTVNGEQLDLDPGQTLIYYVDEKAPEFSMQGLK
Description: as §1, §2

T1 sequence (P25942 21-193 limits assumed): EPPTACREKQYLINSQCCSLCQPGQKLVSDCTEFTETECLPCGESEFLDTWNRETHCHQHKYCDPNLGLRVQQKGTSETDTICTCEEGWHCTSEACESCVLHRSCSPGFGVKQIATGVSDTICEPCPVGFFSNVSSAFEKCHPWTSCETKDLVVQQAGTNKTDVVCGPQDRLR

B1: AM_4110-4126 (bispecific antibody)
heavy 1: not shown
light: DIQMTQSPSSLSASVGDRVTITCRASQSISSYLNWYQEKPGKAPKLLIYAASSLQSGVPSRFSGSGSGTDFTLTISSLQPEDFATYYCQQYGRNPPTFGQGTKLEIKRTVAAPSVFIFPPSDEQLKSGTASVVCYLNNFYPREAKVQWKVDNALQSGNSQESVTEQDSKDSTYSLWSTLTLSKADYEKHKVYACEVTHQGLSSPVTKSFNRGEC
heavy 2: EVQLLEQSGAELVRPGTSVKISCKASGYAFTNYWLGWVKERPGHGLEWIGDIFPGSGNIHYNEKFKGKATLTADKSSSTAYMQLSSLTFEDSAVYFCARLRNWDEPMDYWGQGTTVTVSSASTKGPSVFPLAPSSKSTSGGTAALGCLVKDYFPEPVTVSWNSGALTSGVHTFPAVLQSSGLISLSSVVEVPSSSLGTQTYICNVNHKPSNTKVDKKVEPKSC
notes: AC_05293 backbone; also called double mutant I126G + Y180I; copies: 2 + 2 + 2
Kd [1]: 1.5 nM | koff [1]: 0.00051 s⁻¹ | kon [1]: 350000 M⁻¹ s⁻¹ | Kd [2]: 5.1 nM | koff [2]: 0.0009 s⁻¹ | kon [2]: 170000 M⁻¹ s⁻¹

B2: AM_4110-4131 (bispecific antibody)
heavy 1: not shown
light: DIQMTQSPSSLSASVGDRVTITCRASQSISSYLNWYQEKPGKAPKLLIYAASSLQSGVPSRFSGSGSGTDFTLTISSLQPEDFATYYCQQYGRNPPTFGQGTKLEIKRTVAAPSVFIFPPSDEQLKSGTASVVCYLNNFYPREAKVQWKVDNALQSGNSQESVTEQDSKDSTYSLWSTLTLSKADYEKHKVYACEVTHQGLSSPVTKSFNRGEC
heavy 2: EVQLLEQSGAELVRPGTSVKISCKASGYAFTNYWLGWVKERPGHGLEWIGDIFPGSGNIHYNEKFKGKATLTADKSSSTAYMQLSSLTFEDSAVYFCARLRNWDEPMDYWGQGTTVTVSSASTKGPSVFPLAPSSKSTSGGTAALGCLVKDYFPEPVTVSWNSGALTSGVHTFPAVLQSSGLWSLSSVVEVPSSSLGTQTYICNVNHKPSNTKVDKKVEPKSC
notes: AC_05293 backbone; also called double mutant I126G + Y180W; copies: 2 + 2 + 2
Kd [1]: 1.2 nM | koff [1]: 0.00056 s⁻¹ | kon [1]: 450000 M⁻¹ s⁻¹ | Kd [2]: 4.7 nM | koff [2]: 0.00095 s⁻¹ | kon [2]: 200000 M⁻¹ s⁻¹

B3: AM_4110-4133 (bispecific antibody)
heavy 1: not shown
light: DIQMTQSPSSLSASVGDRVTITCRASQSISSYLNWYQEKPGKAPKLLIYAASSLQSGVPSRFSGSGSGTDFTLTISSLQPEDFATYYCQQYGRNPPTFGQGTKLEIKRTVAAPSVFIFPPSDEQLKSGTASVVCYLNNFYPREAKVQWKVDNALQSGNSQESVTEQDSKDSTYSLWSTLTLSKADYEKHKVYACEVTHQGLSSPVTKSFNRGEC
heavy 2: EVQLLEQSGAELVRPGTSVKISCKASGYAFTNYWLGWVKERPGHGLEWIGDIFPGSGNIHYNEKFKGKATLTADKSSSTAYMQLSSLTFEDSAVYFCARLRNWDEPMDYWGQGTTVTVSSASTKGPSVFPLAPSSKSTSGGTAALGCLVKDYFPEPVTVSWNSGALTSGVHTFPAVLQSSGLYSLTSVVEVPSSSLGTQTYICNVNHKPSNTKVDKKVEPKSC
notes: AC_05293 backbone; also called double mutant I126G + S183T; copies: 2 + 2 + 2
Kd [1]: 1.1 nM | koff [1]: 0.00075 s⁻¹ | kon [1]: 680000 M⁻¹ s⁻¹ | Kd [2]: 4.9 nM | koff [2]: 0.00096 s⁻¹ | kon [2]: 190000 M⁻¹ s⁻¹

B4: AM_4110-4134 (bispecific antibody)
heavy 1: not shown
light: DIQMTQSPSSLSASVGDRVTITCRASQSISSYLNWYQEKPGKAPKLLIYAASSLQSGVPSRFSGSGSGTDFTLTISSLQPEDFATYYCQQYGRNPPTFGQGTKLEIKRTVAAPSVFIFPPSDEQLKSGTASVVCYLNNFYPREAKVQWKVDNALQSGNSQESVTEQDSKDSTYSLWSTLTLSKADYEKHKVYACEVTHQGLSSPVTKSFNRGEC
heavy 2: EVQLLEQSGAELVRPGTSVKISCKASGYAFTNYWLGWVKERPGHGLEWIGDIFPGSGNIHYNEKFKGKATLTADKSSSTAYMQLSSLTFEDSAVYFCARLRNWDEPMDYWGQGTTVTVSSASTKGPSVFPLAPSSKSTSGGTAALGCLVKDYFPEPVTVSWNSGALTSGVHTFPAVLQSSGLYSLSSVVEGPSSSLGTQTYICNVNHKPSNTKVDKKVEPKSC
notes: AC_05293 backbone; also called double mutant I126G + V188G; copies: 2 + 2 + 2
Kd [1]: 0.88 nM | koff [1]: 0.00075 s⁻¹ | kon [1]: 860000 M⁻¹ s⁻¹ | Kd [2]: 5.3 nM | koff [2]: 0.0011 s⁻¹ | kon [2]: 200000 M⁻¹ s⁻¹

B5: AM_4115-4133 (bispecific antibody)
heavy 1: not shown
light: DIQMTQSPSSLSASVGDRVTITCRASQSISSYLNWYQEKPGKAPKLLIYAASSLQSGVPSRFSGSGSGTDFTLTISSLQPEDFATYYCQQYGRNPPTFGQGTKLEIKRTVAAPSVFIFPPSDEQLKSGTASVVCYLNNFYPREAKVQWKVDNALQSGNSQESVTEQDSKDSTYSLWSTLTLSKADYEKHKVYACEVTHQGLSSPVTKSFNRGEC
heavy 2: EVQLLEQSGAELVRPGTSVKISCKASGYAFTNYWLGWVKERPGHGLEWIGDIFPGSGNIHYNEKFKGKATLTADKSSSTAYMQLSSLTFEDSAVYFCARLRNWDEPMDYWGQGTTVTVSSASTKGPSVFPLAPSSKSTSGGTAALGCLVKDYFPEPVTVSWNSGALTSGVHTFPAVLQSSGLYSLTSVVEVPSSSLGTQTYICNVNHKPSNTKVDKKVEPKSC
notes: AC_05293 backbone; also called double mutant I126S + S183T; copies: 2 + 2 + 2
Kd [1]: 1 nM | koff [1]: 0.0011 s⁻¹ | kon [1]: 1.1e+06 M⁻¹ s⁻¹ | Kd [2]: 7 nM | koff [2]: 0.0013 s⁻¹ | kon [2]: 180000 M⁻¹ s⁻¹

B6: AM_4115-4134 (bispecific antibody)
heavy 1: not shown
light: DIQMTQSPSSLSASVGDRVTITCRASQSISSYLNWYQEKPGKAPKLLIYAASSLQSGVPSRFSGSGSGTDFTLTISSLQPEDFATYYCQQYGRNPPTFGQGTKLEIKRTVAAPSVFIFPPSDEQLKSGTASVVCYLNNFYPREAKVQWKVDNALQSGNSQESVTEQDSKDSTYSLWSTLTLSKADYEKHKVYACEVTHQGLSSPVTKSFNRGEC
heavy 2: EVQLLEQSGAELVRPGTSVKISCKASGYAFTNYWLGWVKERPGHGLEWIGDIFPGSGNIHYNEKFKGKATLTADKSSSTAYMQLSSLTFEDSAVYFCARLRNWDEPMDYWGQGTTVTVSSASTKGPSVFPLAPSSKSTSGGTAALGCLVKDYFPEPVTVSWNSGALTSGVHTFPAVLQSSGLYSLSSVVEGPSSSLGTQTYICNVNHKPSNTKVDKKVEPKSC
notes: AC_05293 backbone; also called double mutant I126S + V188G; copies: 2 + 2 + 2
Kd [1]: 1.1 nM | koff [1]: 0.001 s⁻¹ | kon [1]: 930000 M⁻¹ s⁻¹ | Kd [2]: 6.9 nM | koff [2]: 0.0013 s⁻¹ | kon [2]: 190000 M⁻¹ s⁻¹

B7: AM_4117-4126 (bispecific antibody)
heavy 1: not shown
light: DIQMTQSPSSLSASVGDRVTITCRASQSISSYLNWYQEKPGKAPKLLIYAASSLQSGVPSRFSGSGSGTDFTLTISSLQPEDFATYYCQQYGRNPPTFGQGTKLEIKRTVAAPSVFIFPPSDEQLKSGTASVVCYLNNFYPREAKVQWKVDNALQSGNSQESVTEQDSKDSTYSLWSTLTLSKADYEKHKVYACEVTHQGLSSPVTKSFNRGEC
heavy 2: EVQLLEQSGAELVRPGTSVKISCKASGYAFTNYWLGWVKERPGHGLEWIGDIFPGSGNIHYNEKFKGKATLTADKSSSTAYMQLSSLTFEDSAVYFCARLRNWDEPMDYWGQGTTVTVSSASTKGPSVFPLAPSSKSTSGGTAALGCLVKDYFPEPVTVSWNSGALTSGVHTFPAVLQSSGLISLSSVVEVPSSSLGTQTYICNVNHKPSNTKVDKKVEPKSC
notes: AC_05293 backbone; also called double mutant T109P + Y180I; copies: 2 + 2 + 2
Kd [1]: 1.2 nM | koff [1]: 0.00048 s⁻¹ | kon [1]: 400000 M⁻¹ s⁻¹ | Kd [2]: 4.6 nM | koff [2]: 0.001 s⁻¹ | kon [2]: 220000 M⁻¹ s⁻¹

B8: AM_4117-4131 (bispecific antibody)
heavy 1: not shown
light: DIQMTQSPSSLSASVGDRVTITCRASQSISSYLNWYQEKPGKAPKLLIYAASSLQSGVPSRFSGSGSGTDFTLTISSLQPEDFATYYCQQYGRNPPTFGQGTKLEIKRTVAAPSVFIFPPSDEQLKSGTASVVCYLNNFYPREAKVQWKVDNALQSGNSQESVTEQDSKDSTYSLWSTLTLSKADYEKHKVYACEVTHQGLSSPVTKSFNRGEC
heavy 2: EVQLLEQSGAELVRPGTSVKISCKASGYAFTNYWLGWVKERPGHGLEWIGDIFPGSGNIHYNEKFKGKATLTADKSSSTAYMQLSSLTFEDSAVYFCARLRNWDEPMDYWGQGTTVTVSSASTKGPSVFPLAPSSKSTSGGTAALGCLVKDYFPEPVTVSWNSGALTSGVHTFPAVLQSSGLWSLSSVVEVPSSSLGTQTYICNVNHKPSNTKVDKKVEPKSC
notes: AC_05293 backbone; also called double mutant T109P + Y180W; copies: 2 + 2 + 2
Kd [1]: 1 nM | koff [1]: 0.00066 s⁻¹ | kon [1]: 630000 M⁻¹ s⁻¹ | Kd [2]: 4.5 nM | koff [2]: 0.0012 s⁻¹ | kon [2]: 260000 M⁻¹ s⁻¹

B9: AM_4117-4133 (bispecific antibody)
heavy 1: not shown
light: DIQMTQSPSSLSASVGDRVTITCRASQSISSYLNWYQEKPGKAPKLLIYAASSLQSGVPSRFSGSGSGTDFTLTISSLQPEDFATYYCQQYGRNPPTFGQGTKLEIKRTVAAPSVFIFPPSDEQLKSGTASVVCYLNNFYPREAKVQWKVDNALQSGNSQESVTEQDSKDSTYSLWSTLTLSKADYEKHKVYACEVTHQGLSSPVTKSFNRGEC
heavy 2: EVQLLEQSGAELVRPGTSVKISCKASGYAFTNYWLGWVKERPGHGLEWIGDIFPGSGNIHYNEKFKGKATLTADKSSSTAYMQLSSLTFEDSAVYFCARLRNWDEPMDYWGQGTTVTVSSASTKGPSVFPLAPSSKSTSGGTAALGCLVKDYFPEPVTVSWNSGALTSGVHTFPAVLQSSGLYSLTSVVEVPSSSLGTQTYICNVNHKPSNTKVDKKVEPKSC
notes: AC_05293 backbone; also called double mutant T109P + S183T; copies: 2 + 2 + 2
Kd [1]: 0.93 nM | koff [1]: 0.0007 s⁻¹ | kon [1]: 750000 M⁻¹ s⁻¹ | Kd [2]: 4.6 nM | koff [2]: 0.0012 s⁻¹ | kon [2]: 260000 M⁻¹ s⁻¹

B10: AM_4117-4134 (bispecific antibody)
heavy 1: not shown
light: DIQMTQSPSSLSASVGDRVTITCRASQSISSYLNWYQEKPGKAPKLLIYAASSLQSGVPSRFSGSGSGTDFTLTISSLQPEDFATYYCQQYGRNPPTFGQGTKLEIKRTVAAPSVFIFPPSDEQLKSGTASVVCYLNNFYPREAKVQWKVDNALQSGNSQESVTEQDSKDSTYSLWSTLTLSKADYEKHKVYACEVTHQGLSSPVTKSFNRGEC
heavy 2: EVQLLEQSGAELVRPGTSVKISCKASGYAFTNYWLGWVKERPGHGLEWIGDIFPGSGNIHYNEKFKGKATLTADKSSSTAYMQLSSLTFEDSAVYFCARLRNWDEPMDYWGQGTTVTVSSASTKGPSVFPLAPSSKSTSGGTAALGCLVKDYFPEPVTVSWNSGALTSGVHTFPAVLQSSGLYSLSSVVEGPSSSLGTQTYICNVNHKPSNTKVDKKVEPKSC
notes: AC_05293 backbone; also called double mutant T109P + V188G; copies: 2 + 2 + 2
Kd [1]: 0.97 nM | koff [1]: 0.00072 s⁻¹ | kon [1]: 740000 M⁻¹ s⁻¹ | Kd [2]: 5.2 nM | koff [2]: 0.0012 s⁻¹ | kon [2]: 230000 M⁻¹ s⁻¹
